Results from US20100129390A1, “DKK1 AS A UNIVERSAL TUMOR VACCINE FOR IMMUNOTHERAPY OF CANCERS” (priority 2007, published 2010).

How the values were obtained:
[1] = system: HLA-A*0201 transgenic mice; experiment: In vivo immunogenicity of the peptides; conditions: 100 μg per mouse s.c., single immunization, splenocytes two weeks after
Excerpt: HLA-A*0201 transgenic (Tg[HLA-A2.1]) mice were purchased from Jackson Laboratory (Bar Harbor, Me.). Ishioka, G. Y., et al., Utilization of MHC Class I Transgenic Mice for Development of Minigene DNA Vaccines Encoding Multiple HLA-Restricted CTL Epitopes, J. Immunol. 1999, 162:3915-3925; Alexander, J., et al., A Decaepitope Polypeptide Primes for Multiple CD8+ IFN-Gamma and Th Lymphocyte Responses: Evaluation of Multiepitope Polypeptides as a Mode for Vaccine Delivery, J. Immunol. […] Mice were maintained at the animal facility and studies were approved by the Institutional Animal Care and Use Committees of The University of Texas M. D. Anderson Cancer Center.
For immunization, peptides were diluted in PBS at room temperature, mixed, and emulsified with an equal volume of incomplete Freund's adjuvant (Sigma). […]
To examine whether the peptides were able to immunize HLA-A*0201 transgenic mice, we injected 100 μg per mouse of peptides P20 (SEQ. ID NO. 1) and P66v (SEQ. ID. NO. 4), and Flu-matrix peptide as positive control s.c. to the mice (3 mice per peptide) according to established protocol. […] In vivo immunization successfully generated peptide-specific T cells, detected as specific IFN-γ-expressing (FIG. 2C) and peptide (P20 or P66v)-HLA-A*0201 tetramer^+ CD8^+ T cells (FIG. 2D).

[2] = system: DKK1 peptide-specific T-cell lines; experiment: T-cell proliferation assay (3[H]-thymidine); type: cell-based, human; conditions: after 3 to 4 rounds of in vitro stimulation; P<0.01 compared with unpulsed DC
Experimental: DKK1-specific T cells were generated from PBMCs of HLA-A*0201^+ blood donors and myeloma patients by repeated stimulation of autologous T cells with DKK1 peptide-loaded mature DCs. Briefly, the non-adherent cells of PBMCs (2×10^6/mL; used as T-cell population) were cocultured in 50 mL tissue-culture flasks at 37° C. in 5% CO2 for 7-10 days in Aim-V medium supplemented with 10% pooled human serum (T-cell medium) with mature DCs (2×10^5/mL) preincubated with DKK1 peptides at a final concentration of 50 μg/mL at 37° C. for 2 h. After culture, T cells were collected and restimulated with DKK1 peptide-pulsed autologous mature DCs every week, and the cultures were fed every 5 days with fresh medium containing recombinant IL-2 (20 IU/mL), IL-7 (5 ng/mL) and IL-15 (5 ng/mL; all from R&D System). Induction of DKK1-specific T cells was monitored weekly using T-cell proliferation assay and DKK1 peptide-HLA-A*0201 tetramers (synthesized by MHC Tetramer Laboratory, Baylor College of Medicine, Houston, Tex.). […]
T cells (5×10^4/100 μL/well) were seeded into 96-well U-bottom tissue culture plates (Corning Incorporated, Corning, N.Y.) in T-cell medium. […] T-cell proliferation was measured after overnight incubation with ^3[H]-thymidine ([…]/0.037 MBq/well). Results are expressed as mean count per minute (CPM) of triplicate cultures.

HLA-A*0201 molecules = molecular target: T1, HLA-A*0201 molecules (Homo sapiens, UniProt P04439, D140Y/D185E/D98H/E176V/E277Q/G131W/G231S/I119V/I121R/I166T/I218V/L300P/L318F/N151K/N90K/P208A/P217A/Q86G/Q94H/R138H/R169H/T345S); experiment: Peptide-T2 cell binding assay; conditions: HLA-A*0201 expression by flow cytometry (FIG. 2A)
T1 construct: endogenous in cells; host or cells: T2 cell line
Experimental: All peptides were synthesized in the Peptide Synthesis Facility at M. D. Anderson Cancer Center. Purity of synthetic peptides was confirmed to be >98% by reverse-phase high-performance liquid chromatography and mass spectrometry. Synthetic peptides were dissolved in dimethylsulfoxide (DMSO; Sigma, St. Louis, Mo.), and stored at −20° C. until use. Peptides binding to HLA-A*0201 molecules were measured using the T2 cell line according to a protocol previously described. Nijman, H. W., et al., Identification of Peptide Sequences that Potentially Trigger HLA-A2.1-Restricted Cytotoxic T Lymphocytes, Eur J. Immunol. 1993, 23:1215-1219. Briefly, T2 cells were incubated overnight with 3 μg/mL of β2-microglobulin (Sigma) and different concentrations of peptides, followed by wash and incubation with FITC-labeled anti-HLA-A*0201 mAb BB7.2 (BD PharMingen). After washing, cells were analyzed for the levels of HLA-A*0201 expression by flow cytometry. HLA-A*0201 expression was quantified according to the formula [(mean fluorescence with peptide−mean fluorescence without peptide)/mean fluorescence without peptide]×100.

[3] = molecular target: T2, HLA-A*0201 molecules on T2 cells (human); experiment: cell-based or functional assay
T2 construct: MHC class I molecule on T2 cells; also called HLA-A2.1

HLA-ABC = experiment: cell-based or functional assay
[4] = molecular target: T2, HLA-A*0201 molecules on T2 cells; experiment: peptide-T2 cell binding assay, flow cytometry of surface HLA-A*0201 with mAb BB7.2
Experimental: All peptides were synthesized in the Peptide Synthesis Facility at M. D. Anderson Cancer Center. Purity of synthetic peptides was confirmed to be >98% by reverse-phase high-performance liquid chromatography and mass spectrometry. Synthetic peptides were dissolved in dimethylsulfoxide (DMSO; Sigma, St. Louis, Mo.), and stored at −20° C. until use. […] Nijman, H. W., et al., Identification of Peptide Sequences that Potentially Trigger HLA-A2.1-Restricted Cytotoxic T Lymphocytes, Eur J. Immunol. 1993, 23:1215-1219.

[5] = system: murine myeloma cell line tumor-A; experiment: Vaccination and murine myeloma challenge; type: in vivo, Balb/c mice; conditions: vaccinated three times, s.c. challenge with tumor-A 1×10^6 cells/mouse
Experimental: Balb/c mice (4 per group) were s.c. vaccinated three times with murine DKK1 protein (50 ug/mouse) at a 30-day interval followed by s.c. challenge with murine myeloma cell line tumor-A (1×10^6 cells/mouse) after one weeks of third vaccination. Tumor burdens were measured twice every wk. Mice were euthanized when s.c. tumors reached 225 mm^2 or when mice became moribund. FIG. 18A is a graph depicting ELISA titers of anti-DKK1 antibody in the serum of immunized mice. Results shown in FIG. 18B are survival of mice that received DKK1 protein vaccinations and PBS control. Splenocytes were isolated from survival mice and pooled, and restimulated with irradiated tumor-A for 5 d. […]
Balb/c mice (5 per group) were s.c. vaccinated three times with three DKK1 peptides (100 ug/mouse) at a 14-day interval followed by s.c. challenge with murine myeloma cell line tumor-A (1×10^6 cells/mouse) after one week of third vaccination. Tumor burdens were measured twice every wk. […]
Balb/c mice (5 per group) were i.m. vaccinated three times with murine DKK1 DNA (50 ug/mouse) at a 14-day interval followed by s.c. challenge with murine myeloma cell line tumor-A (1×10^6 cells/mouse) after one weeks of third vaccination. Tumor burdens were measured twice every wk. […]

**Q.** With “ALGGHPLLGV (listed as Homo Sapiens) [P20]” as the molecule, how does the “immunogenicity in immunizing the mice” value [1] read?
**A.** as immunogenic as the Flu-matrix peptide

**Q.** What about the “T-cell line proliferation in response to autologous DCs pulsed with peptide” value [2] of the same molecule?
**A.** proliferated in response to autologous DCs pulsed, but not unpulsed

**Q.** What does the source list for “ILYPGGNKV (listed as Homo Sapiens) [P66v]”?
**A.** binding affinity (HLA-A*0201 molecules): much higher binding affinity than P66; immunogenicity in immunizing the mice [1]: as immunogenic as the Flu-matrix peptide; T-cell line proliferation in response to autologous DCs pulsed with peptide [2]: proliferated in response to autologous DCs pulsed, but not unpulsed

**Q.** anti-HLA-A*0201 mAb BB7.2 (antibody) was tested. Which inhibition of T cell-mediated cytotoxicity against peptide-pulsed T2 cells (51Cr release) [3] did it give?
**A.** 70 to 80 % inhibition

**Q.** anti-HLA-ABC mAb W6/32 (antibody) was tested. Which inhibition of T cell-mediated cytotoxicity against peptide-pulsed T2 cells (51Cr release) (HLA-ABC) did it give?
**A.** 70 to 80 % inhibition

B1: DKK1 peptide P20 (peptide)
peptide: ALGGHPLLGV
notes: Synthetic peptide, purity >98%; the end of the range follows from the length of 10 residues
**Q.** Does B1 bind [4]?
**A.** binds

**Q.** Does YLGGHPLLGV (Heteroclitic variant of P20) [DKK1 heteroclitic peptide Py20] bind [4]?
**A.** binds

**Q.** Does ILYPGGNKV (Heteroclitic variant of P66) [DKK1 heteroclitic peptide P66v] bind [4]?
**A.** binds

B2: DKK1 peptide P66 (peptide)
peptide: ILYPGGNKY
notes: Synthetic peptide; the end of the range follows from the length of 9 residues
**Q.** Does B2 bind [4]?
**A.** binds

B3: DKK1 Protein Vaccine: murine DKK1 protein, 50 ug/mouse s.c. (protein, UniProt O54908 32-272, looked up)
Dickkopf-related protein 1: TLNSVLINSNAIKNLPPPLGGAGGQPGSAVSVAPGVLYEGGNKYQTLDNYQPYPCAEDEECGSDEYCSSPSRGAAGVGGVQICLACRKRRKRCMRHAMCCPGNYCKNGICMPSDHSHFPRGEIEESIIENLGNDHNAAAGDGYPRRTTLTSKIYHTKGQEGSVCLRSSDCAAGLCCARHFWSKICKPVLKEGQVCTKHKRKGSHGLEIFQRCYCGEGLACRIQKDHHQASNSSRLHTCQRH
**Q.** Which “protection against murine MM challenge” value [5] does the source give for B3 here?
**A.** can Protect Murine MM Challenge
